Assay: yeast display, Sf9 membrane polyspecificity reagent, FACS + sequencing; frameworks hold sequencing errors
In short: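 Nanobodies came from a synthetic yeast display library in Saccharomyces cerevisiae BJ5465, induced with galactose for 36–48 hours and stained for 1 hour at 4 °C with 10% biotinylated, detergent-solubilized Sf9 membrane reagent. Cells were enriched on streptavidin microbeads and then FACS-sorted, with low and high (top ~1%) gates set on anti-HA fluorescence for expression and streptavidin fluorescence for reagent binding. Each polyreactivity label reflects the gate a clone came from. Genes were amplified by colony PCR, sequenced by MiSeq 2 × 250 and filtered by CDR length.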

Row | Sequence | polyreactivity (PSR sort gate)
1 | QVQLEESAGGLVQAGGSLRLSCAASGRSFNAYAMGWYRQAPGKERELVATISWRTGSTYYADSVKGRFTISRDNAKNTVYLQMNSLKPEDTAVYYCNAKVGSYGAQGYRFAYNYWGQGTQVTVSS | high polyreactivity
2 | QVQLVESWGGLVQAGGSLRISCAASGFIIDGNAMGWYRQAPGKERELLAAISGDGGSYYADSVKGRFTISRDNAKNSVYLQRNSLKPEDTAVYDCAAEQTQLYSFGWDEYWGQGTQVTVSS | low polyreactivity
3 | QVQLVESGGGLVQAGGSLRLSCAASGRTFRTYTMGWYRQAPGKEREFVAAITSSGASTYYADSVKGRFTISRDNAKNTVYLEMNSLKPEDTAVYYCAARYGRRLVWVPALLYDYWGQGTQVTVSS | high polyreactivity
4 | QVQLVESGGGLVQAGGSLRLICAASGSIFSENTMGWYRQAPGKERELVAAISWSGGSTKYADSVKGRFTISRDNAQITVYLQMNCLKPEDTSVYNCGTDIHDDTGAYDYWGQCTQVTVSS | low polyreactivity
5 | QVQLVESGGALVQAGGSLRLSCAASGFIFGSYVMGWYRQAPGKERELVAAISQIGGRTYYADSVKGRFTISRDNAKKTVYLQMNSLKPEDTAVYYCAARWAGYRYVGGYWRDDMDYWGQGTQVTVSS | high polyreactivity
6 | QVQLVESGGGLVQAGGSLRLSCAASGIIIRYYGMGWYRQAPGKERELVARIRWTGGSTYYADSVKGRFTISRDNAKNTVYLQMNSLKPEDTAVYYCNADPWWRFDYWGQGTQVTVSS | low polyreactivity
7 | QVQLVESGGGLVQAGGSLRLSCAASGNIFSWYAMGWYRQAPGKERELVAAITSGGITYYADSVKGRFTISRDNAKNTVYLQMNSLKPEDTAVYYCNIDVGFTRPLYYWGQGTQVTVSS | low polyreactivity
8 | QVQLVESGGGLVQAGGSLRLSCAASGSTFYDYAMGWYRQAPGKERELVASIDSGDSTNYADSVKGRFTISRDNAKNTVYLQMNSLKPEDTAVYYCAADYQNTGARYWYYYWGQGTQVTVSS | low polyreactivity
9 | LLQLQESGGVLVQAGCRLRLICAASGSISVTRAMCWYSQAPGKERELVASTTGGSNNADSVNGRFTISRDNAKTTVYLQMNSLKPEDTAVYYCATEYYGPVYDLDYDYCGQGTQVTVSS | low polyreactivity
10 | QVQLVDSGGGLVQAGGSLRLSCAASGRTIATYTQGWYRHAPGKERELVAAISKSGGSTYYADSVKGRFTISRDNAKNTVYLQMNSLKTEDTAVYYCAKRRSGNVRKYDYWGQGTQVTVSS | high polyreactivity
11 | QVQLVESGGGLVQAGGSLRLSCAASGFTLDYYAMGWYRKAPGKERELVAAISFSGGSTYYADSVKGRFTISRDNAKNTVYLQMNSLKPEDTAVYYCAADPQIVWYDYWGQGTQVTVSS | low polyreactivity
12 | QVQLVESGRGLVQAGGSLRLSCAASGRIFKRYTMGWYRPAPGKETELVAGITFSGGSTYYADSVKGRFTISRDNAKNTVYLQMNSLKREDTAVYYCAADDAYYTYQYDYWGQGTQVTVSS | low polyreactivity
13 | QVQLVESGGGLVQAGGSLRLSCAASGFTLAGYDMGWYRQAPGKEREFVATISTYADSVKGRFTISRDNAKNTVYLQMNSQKPEDSAVYYCAAGRYLWHFTFDYWGQGTQVTVSS | low polyreactivity
14 | QVQLVESGGGLVQAGGSLRLSCAASGSTFWFNGMGWYRQAPGKERELVAVITFSTGSTSYADSVKGRCTISRDDAKNTVYLQMNSLKPEDTAVYYCAAEYVIYYWFEWLDLDYWGQGTQVTVSS | high polyreactivity
15 | QVQLVESGGGLVQAGGSLRLSCAASGSTFYRNALGWYRQAPGKERELVARISSRGGRTSYADSVKGRFTISRDNAKNTVYFQMNSLKPEDTAVYYCAADYYVNRIQRYDYWGQGTQVTVSS | high polyreactivity
16 | QVQLVESGGGLVQAGGSLRLSCAASGSIFRSNAMGWYRQAPGKERELVAAISRSGGRTYYADSVKGRFTISRDNAKNTVYLLMNSLKPEDTAVYYCAAQVVRSLKYEYWGQGTQVTVSS | high polyreactivity
